We go through one molecule from patent US20210238305A1 (REMEGEN, published 2021).

The target of this experiment is T1, human epidermal growth factor receptor 2 (Her2) (human, UniProt P04626 23-1255).
T1 construct: whole, on cells; Endogenous Her2 in fixed patient tissue; also called ErbB2
In words: IHC grade, no antigen retrieval, breast carcinoma sample 5 (18-07814-1).

B1: RC48M antibody (antibody, mouse IgG1, kappa, V domains shown)
VH: EVQLVQSGAEVKKPGATVKISCKVSGYTFTDYYIHWVQQAPGKGLEWMGRVNPDHGDSYYNQKFKDKATITADKSTDTAYMELSSLRSEDTAVYFCARNYLFDHWGQGTLVTVSS
VL: DIQMTQSPSSVSASVGDRVTITCKASQDVGTAVAWYQQKPGKAPKLLIYWASIRHTGVPSRFSGSGSGTDFTLTISSLQPEDFATYYCHQFATYTFGGGTKVEIKR
notes: also called R48M
Take B1: the binding result is listed as “binds”.
